# In US20210247395A1:
# Target: NP binding epitope peptide of human Influenza B, residues 31-43 of Nucleoprotein (…) (Influenza B virus (strain B/Lee/1940))
# Assay: ELISA on overlapping peptides of NP (strain B/Lee/1940)
row,Substance,OD492 nm [OD492 nm]
1,"GenWay mAb GWB-T00595, clone B265M (murine anti-Influenza B nucleoprotein monoclonal antibody)",> 0.4
2,"Acris mAb 3IF18-InB12, clone InB12 (murine anti-Influenza B nucleoprotein monoclonal antibody)",> 0.4
